Test [1] deals with TβRII-Fc (TβRII extracellular domain fused to human IgG1 Fc) (human) (UniProt P37173). Put plainly: SPR; Biacore 3000, CM5 chip with anti-human Fc mixed with anti-mouse Fc antibodies; TβRII-SE/Fc or TβRII-Fc captured to 100–140 RU; TGF-β1, -β2 or -β3 injected at 0.4 to 30 nM, 50 μl/min, association 90 s, dissociation 300 s (900 s for slow rates); 0.1% surfactant; double referencing; 1:1 binding model; stoichiometry from Rmax and mass ratios. For orientation: In SPR one partner is held on a chip, and binding of the other changes the refractive index at the surface.

The target in test [2] is TβRII-SE/Fc (TβRII-Soluble Endogenous fused to the human IgG1 Fc domain) (human). The description is as above.

Sequence of TβRII-Fc (TβRII extracellular domain fused to human IgG1 Fc) (human) (P37173 23-166): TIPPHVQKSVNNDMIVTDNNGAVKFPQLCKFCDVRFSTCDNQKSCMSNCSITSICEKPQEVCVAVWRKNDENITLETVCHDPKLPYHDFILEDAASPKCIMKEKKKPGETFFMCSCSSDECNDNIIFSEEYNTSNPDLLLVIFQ

For TGF-β1 (ligand), the stoichiometry N (TGF-β dimer per bivalent Fc ligand) in test [1] and in test [2] was 1 each time.

As to TGF-β2 (ligand), the stoichiometry N (TGF-β dimer per bivalent Fc ligand) in test [1] and in test [2] was 1 throughout.

In the case of TGF-β3 (ligand), the stoichiometry N (TGF-β dimer per bivalent Fc ligand) in test [2] came out at 1.

Values taken from PMC8461249.
